Biological target: T1, polypeptide 10 (human)
T1 construct: The empty single-chain polypeptide as secreted by WEHI-231 cells, about 50 kD; also called MHC-derived polypeptide; single continuous amino acid chain 12
Experiment: inferred from peptide-dependent multimer staining of TCR-expressing Jurkat76 cells (flow cytometry)

T1 sequence (chain, as listed by the source limits assumed): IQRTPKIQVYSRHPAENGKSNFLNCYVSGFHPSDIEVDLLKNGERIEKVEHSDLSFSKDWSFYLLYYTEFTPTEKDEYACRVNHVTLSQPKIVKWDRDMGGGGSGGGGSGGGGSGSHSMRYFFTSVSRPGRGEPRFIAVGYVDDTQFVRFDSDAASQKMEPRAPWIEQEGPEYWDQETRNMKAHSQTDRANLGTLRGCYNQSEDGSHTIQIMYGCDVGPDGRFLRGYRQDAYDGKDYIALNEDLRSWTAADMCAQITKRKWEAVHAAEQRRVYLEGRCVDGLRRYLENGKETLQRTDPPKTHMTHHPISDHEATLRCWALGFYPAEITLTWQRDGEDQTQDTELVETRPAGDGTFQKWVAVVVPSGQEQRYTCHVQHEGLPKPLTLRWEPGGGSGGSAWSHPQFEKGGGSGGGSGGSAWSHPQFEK

LTDLGQNLLY [oligopeptide 26]
binding result: binds
